The results in this text go back to the nanobody polyreactivity screen of Harvey et al. (2022).

A short description of the data set: yeast display, Sf9 membrane polyspecificity reagent, FACS + sequencing; frameworks hold sequencing errors. A digest of the protocol:
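A nanobody's polyreactivity label depends on the gate it was sorted from. Yeast display cells were stained with 10% biotinylated, detergent-solubilized Sf9 membrane reagent for 1 hour at 4 °C, enriched on streptavidin microbeads and sorted by FACS. The low and high (top ~1%) gates were set on anti-HA fluorescence for expression and streptavidin fluorescence for reagent binding.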
As to “QVQLVESGGGLVQAGGSLRLCCAASGFTFPYNGMGWYRQAPGKERELVASISWSGASTYYADSVKGRFTISRDNAKNTVYLQMNSLKPEDTAVYYCAADPGYYSWGCSQDDYWGQGTQVTVSS”, the “polyreactivity (PSR sort gate)” value is given as “low polyreactivity”. With “QVQLVESGGGLVQAGGSLRLCCAASGFTFSYYAMGGYRQAPGKERELVAAISRSGGRTYYADSVKGRFTISRDHAKNTVYVQMNSLKPEDTAVYSCAGVYFGSIFVLEYDYWGQGTQVTVSS” the entry was “high polyreactivity”; with “QVQLVESGGGLVQAGGSLRLCCAASGITFALNAMRWYRQAPGNERELLAAISWSGDSTYYADSVKGRITIARDNAKNTVYLQMNSLKPEDTAVYYCAAVAYLNWTPHYYWGQGTQVTVSS”, “low polyreactivity”. On to “QVQLVESGGGLVQAGGSLRLCCAASGSTFTLYAMGWYSQAPGKVRELVAAISWSTTSTYYAHSVKGRFTISRDNAKNTVSLQMNSLKPEDTAVYYCAAELYRAEYDYWGQGTQVTVSS”, for which the “polyreactivity (PSR sort gate)” value is reported as “high polyreactivity”. Consider “QVQLVESGGGLVQAGGSLRLCCAASGSTFYYYAMGWYRQAPGKEREFVASISSRGTSTYYADSVKGRFTISRDNAKNTVYLQLNSLKPEDTAVYYCAARGWGPTRAYDYSGQGTQVTVSS”, for which the “polyreactivity (PSR sort gate)” value is “high polyreactivity”.

Regarding “QVQLVESGGGLVQAGGSLRLFCAASGRIFSAYAMGLYRQAPGKERELVAGISSRGGSTYYADSVKGRFTISRDNAKNTVYLQMNSLKPEDTAVYYCAKPYGRRYGRLHDYWGQGTQVTVSS”, the “polyreactivity (PSR sort gate)” value is given as “high polyreactivity”. With “QVQLVESGGGLVQAGGSLRLGCAASGGTITSYAMGWYRQAPGKERELVAAITVSGSSTYYADSVKGRFTISRDNAKNTVYLQMNSLKPEDTAVYYCAARWRRFQFDYWGQGTQVTVSS” the entry was “high polyreactivity”; with “QVQLVESGGGLVQAGGSLRLGCAASGITFTPYAMGWYRQAPGKERELVAAISWRGGSTYYADSVKGRFTISRDNAKNTVYLQMNSLKPEDTAVYFCAKDGRGYGRYSRYYTGDYWGQGTQVTVSS”, “low polyreactivity”; with “QVQLVESGGGLVQAGGSLRLICAACGFTLTGYTMGWYRQAPGKERELVAAITSRGGTTYYADSVKGRFTISRDNAKYTVYLQMNSLKPEDTAVYYCNVVYPYLEYDYWGQGTQVTVSS”, “high polyreactivity”. With “QVQLVESGGGLVQAGGSLRLICAASGATFYFYAMGWYREAPGKERELVAAISKRGTSTYYADSVKWRFTISRDNAKNTVYLQLTSLKPEDTAVYFCAADAPRGYNYWGQGTQVTVSS” the entry was “high polyreactivity”; with “QVQLVESGGGLVQAGGSLRLICAASGFIFDWNTMGWYRQAPGKEREMVAAISWSGAGTYYADSVKGRFTISRDNAKNTVYLQMNSLKPEDTAVYYCNAVRANGQASQEGEYWGQGTQVTVSS”, “high polyreactivity”. With “QVQLVESGGGLVQAGGSLRLICAASGFIFRNYARGWYRQAPGKERELVAAITRSGTSTYYADSVKGRFTISRDNAKNTVYLQMNSLKPEDTAVYYCNAGWGLRLSWLGNYWGQGTQVTVSS” the entry was “high polyreactivity”. For the sequence “QVQLVESGGGLVQAGGSLRLICAASGFIFTPYAMGWYRQAPGKERELVAAITWRGARTYYADSVKGRFTISRDNAKNTVYLQMNSLKPEDTAVYYCAVAYWNRQSLFRMYYWGQGTQVTVSS”, the “polyreactivity (PSR sort gate)” value is on record as “high polyreactivity”.

Turning to “QVQLVESGGGLVQAGGSLRLICAASGFIFYPYAMGWYRQAPGKERELVAVITSGGRTYYADSVKGRFTISRDNAKNTVYLQMNSLKPEDTAVYYCNADTFQWWDIADVYVIVKYGYWGQGTQVTVSS”, the “polyreactivity (PSR sort gate)” value is “low polyreactivity”.

With “QVQLVESGGGLVQAGGSLRLICAASGFIITRNAMVWYRPAPGKERELGAVISYGGGSTYYADSVKGRFTISRDNAKNTVYLQMNSLKPEDTAVYYCAADPTWRYYYHYTYYYWGQGTQVTVSS”, the “polyreactivity (PSR sort gate)” value was “high polyreactivity”.

Regarding “QVQLVESGGGLVQAGGSLRLICAASGFILKYNAMGWYRQAPGKERELVAAISSNGGRTYYADSVKGRFTISRDNAMNTVYLQMNSLKPVDTAVYYCAAGRLQPVLGGYWGQGTQVTVSS”, the “polyreactivity (PSR sort gate)” value was “low polyreactivity”. With “QVQLVESGGGLVQAGGSLRLICAASGFTFAYYAMGWYRQAPGKERELVAAISSGGSTYYADSVKGRFTISRDNAKNTVYLQMNSLKPEDTAVYYCAARGGRPLIHHWPWYSWKYDYWGQGTQVTVSS” the entry was “low polyreactivity”; with “QVQLVESGGGLVQAGGSLRLICAASGFTFLTNAMGWYRQAPGKERELVAAISSGGNTNYADSVKGRFTISRDNAKNTVYLQMNSLKPEDTAVYYCAADNDYLSSQVSYYYWGHGTQVTVSS”, “low polyreactivity”; with “QVQLVESGGGLVQAGGSLRLICAASGFTFSVYAMGWYRQAPGKERELVAAITWRGGSTYYADSVKGRFTISRDNAKNTVYLQMNSLKPEDTAVYYCAVLYPKYGKRYGYWGQGTQVTVSS”, “high polyreactivity”. On to “QVQLVESGGGLVQAGGSLRLICAASGFTFVANAMGWYRPAPGKERELVAVIDWDEGSTYYADSVKGRFTISRDNAKNTVYLQMNSLKPEETAVYYCNADGYSPDRYDYYYRYYYWGQGTQVTVSS”, for which the “polyreactivity (PSR sort gate)” value is on record as “low polyreactivity”. With “QVQLVESGGGLVQAGGSLRLICAASGFTFWNYAMGWYRQAPGKERELVAAITWSGGITYYADSVKGRFTISRDNAKNTVYLQMNSLKPEDTAVYYCAAYPQYQPEWYYIEYDYWGQGTQVTVSS” the entry was “low polyreactivity”; with “QVQLVESGGGLVQAGGSLRLICAASGFTFYLYTMGWYRQAPGKERELVAAISWRGGGTYYADSVKGRFTISRDNAKNTVYLQMNSLKPEDTEVYYCAAYWRRRLVYYYWGQGTQVTVSS”, “high polyreactivity”; with “QVQLVESGGGLVQAGGSLRLICAASGFTFYYKAMGWYRPAHGKERELVAAISTGGSTYYADSVKGRFTISRDNAKNTVYLQMNSLKPEDTAVYYCARSLWTGGYGYYYWGQGTQVTVSS”, “high polyreactivity”.

Regarding “QVQLVESGGGLVQAGGSLRLICAASGFTLGSNAMGWYRQAPGKERELVAAMSKSGGSTYYADSVKGRFTISRDNAKNTVYLQMNSLKPEDTAVYYCAARYLYQGYRYDYWGQGTQVTVSS”, the “polyreactivity (PSR sort gate)” value is recorded as “high polyreactivity”.

For the sequence “QVQLVESGGGLVQAGGSLRLICAASGGIFGINAMGWYRPSPVKERELVAAINLSGGRTYYADSVKGRFTISRDNAKKTVYLLMNSLKPEDSAVYYCAAYYGYSLYGHYEYWGQGTQVTVSS”, the “polyreactivity (PSR sort gate)” value is “high polyreactivity”. With “QVQLVESGGGLVQAGGSLRLICAASGGIFGSYAMGWYRQAPGKEREFVAAIRYGSGSTYYADSVKGRFTISRDNAKNTVYLQMNSLKPEDTAVYYCATEYWGVYGYGFIYDYWGQGTQVTVSS” the entry was “low polyreactivity”; with “QVQLVESGGGLVQAGGSLRLICAASGGTFYDYAMGWYRQAPGKERELVAAISASGDSTYYADSVKGRFTISRDNAKNTVYLQMNSLKPEDTAVYSCAAEFTAFDGFDYWGQGTQVTVSS”, “low polyreactivity”; with “QVQLVESGGGLVQAGGSLRLICAASGIIFAWYVMGWSRQAPGKERELVAAITQSGGSTFYADSVKGRFTISRDNAKNTVYLQLNSLKPEDTAVYYCNTDYFFNVPEMDSWGQGTQVTVYS”, “low polyreactivity”.

Regarding “QVQLVESGGGLVQAGGSLRLICAASGIIFFRYAMGWYRQAPGKERELVASIRAIGGSTSYADSVKGRFTISRDNAKNTVYLQMNSLKPEDTAVFYCAARQNYRYGYWGQGTQVTVSS”, the “polyreactivity (PSR sort gate)” value is “high polyreactivity”. On to “QVQLVESGGGLVQAGGSLRLICAASGIIFLYYAMGWYRQAPGKEWELVAAISSGVSTYYADSVKGRFTISRDNAKNTVYLQLNSLKPEDTAVYYCNADYYQLNSGMYYWGQGTQVTVSS”, for which the “polyreactivity (PSR sort gate)” value is on record as “low polyreactivity”.
